Measured values reported in US20140105889A1 (published 2014).
Numbering of substitutions follows the chain as printed. Numbers in names are those of the source.

T1: FcγRIIa type H (human, UniProt P12318 36-217)
T1 construct: also called FcγRIIaH; FcγRIIa(H)
T1 sequence: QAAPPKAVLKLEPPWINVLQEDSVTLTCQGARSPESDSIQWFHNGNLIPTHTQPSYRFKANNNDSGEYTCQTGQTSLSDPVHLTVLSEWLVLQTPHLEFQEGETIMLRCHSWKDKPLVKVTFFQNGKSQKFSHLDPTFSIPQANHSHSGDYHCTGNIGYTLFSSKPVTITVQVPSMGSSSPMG

T2: FcγRIIb (human, UniProt P31994 43-217, limits assumed)
T2 construct: also called FcγIIB; FcgRIIb
T2 sequence: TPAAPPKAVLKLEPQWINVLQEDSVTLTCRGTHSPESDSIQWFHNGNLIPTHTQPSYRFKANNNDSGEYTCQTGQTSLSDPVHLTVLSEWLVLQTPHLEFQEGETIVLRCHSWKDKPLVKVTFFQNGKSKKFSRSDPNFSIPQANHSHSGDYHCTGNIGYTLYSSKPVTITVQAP

T3: human FcγRIIb (human, UniProt P31994 43-217, limits assumed)
T3 construct: also called FcγIIB; hFcgRIIb
T3 sequence: T2 sequence

T4: human FcγRIIa type R (human, UniProt P12318 36-217)
T4 construct: also called Fcγ RIIaR; FcγRIIa(R)
T4 chain: T1 sequence with H133R

T5: human FcγRIIb (human, UniProt P31994 43-217)
T5 construct: also called FcγIIB; FcγRIIb extracellular region
T5 sequence: T2 sequence

B1: IL6R-BP148/IL6R-L (antibody, human IgG1)
heavy: QVQLQESGPGLVKPSETLSLTCAVSGHSISHDHAWSWVRQPPGEGLEWIGFISYSGITNYNPSLQGRVTISRDNSKNTLYLQMNSLRAEDTAVYYCARSLARTTAMDYWGEGTLVTVSSASTKGPSVFPLAPSSKSTSGGTAALGCLVKDYFPEPVTVSWNSGALTSGVHTFPAVLQSSGLYSLSSVVTVPSSSLGTQTYICNVNHKPSNTKVDKKVEPKSCDKTHTCPPCPAPDYLGDDSVFLFPPKPKDTLMISRTPEVTCVVVDVSHEDPEVKFNWYVDGVEVHNAKTKPREEQYNSTYRVVSVLTVLHQDWLNGKEYKCKVSNAALPKPIEKTISKAKGQPREPQVYTLPPSRDELTKNQVSLTCLVKGFYPSDIAVEWESNGQPENNYKTTPPVLDSDGSFFLYSKLTVDKSRWQQGNVFSCSVMHEALHNHYTQESLSLSP
light: DIQMTQSPSSLSASVGDRVTITCRASQDISSYLNWYQQKPGKAPKLLIYYTSRLHSGVPSRFSGSGSGTDFTFTISSLQPEDIATYYCQQGNTLPYTFGQGTKVEIK
notes: EU numbering
B2: IL6R-BP176/IL6R-L (antibody, human IgG1)
heavy: B1 heavy with Y236L, D239G, A328D
light: B1 light
notes: EU numbering
B3: IL6R-BP178/IL6R-L (antibody, human IgG1)
heavy: B1 heavy with Y236L, P273G, A328K
light: B1 light
notes: EU numbering
B4: IL6R-BP177/IL6R-L (antibody, human IgG1)
heavy: B1 heavy with P273G, A328D
light: B1 light
notes: EU numbering
B5: IL6R-BP181/IL6R-L (antibody, human IgG1)
heavy: B1 heavy with Y236L, D239G, P273G
light: B1 light
notes: EU numbering
B6: IL6R-BP206/IL6R-L (antibody, human IgG1)
heavy: B1 heavy with Y236L, D239G, P273G, A328K, K332R
light: B1 light
notes: Anti-human IL-6 receptor IgG1 Fc variant
B7: IL6R-BP211/IL6R-L (antibody, human IgG1)
heavy: B1 heavy with Y236L, D239G, H270D, P273G, K332R
light: B1 light
notes: as for B6
B8: IL6R-BP203/IL6R-L (antibody, human IgG1)
heavy: B1 heavy with D235E, Y236L, P273G, A328K, K332R
light: B1 light
notes: as for B6
B9: IL6R-BP150/IL6R-L (antibody, human IgG1)
heavy: B1 heavy with D235E, K332R
light: B1 light
notes: EU numbering
B10: IL6R-BP151/IL6R-L (antibody, human IgG1)
heavy: B1 heavy with K332R
light: B1 light
notes: EU numbering
B11: IL6R-BP088/IL6R-L (antibody, human IgG1)
heavy: B1 heavy with D235E, Y236L
light: B1 light
notes: copies: 2 + 2
B12: IL6R-G1d/IL6R-L (antibody, human IgG1)
heavy: not shown
light: B1 light
notes: Anti-human IL-6 receptor IgG1 with the G1d constant region (C-terminal Gly and Lys removed); template used for producing IL6R-B3; also called IgG1; copies: 2 + 2
B13: IL6R-BP086/IL6R-L (antibody, human IgG1)
heavy: B1 heavy with D235E, Y236L, D239G
light: B1 light
notes: copies: 2 + 2
B14: IL6R-BP130/IL6R-L (antibody, human IgG1)
heavy: B1 heavy with Y236L, D239G, V325M, A328K
light: B1 light
notes: copies: 2 + 2
B15: IL6R-BP145/IL6R-L (antibody, human IgG1)
heavy: B1 heavy with D235E, A328K, K332A
light: B1 light
notes: copies: 2 + 2
B16: IL6R-PD080/IL6R-L (antibody)
heavy: B1 heavy with D235E, Y236L, M254Y, A328K, K332A, N436Y, E441K
light: B1 light
notes: PD variant: P238D/G237D introduced into IL6R-F11 (EU numbering); copies: 2 + 2
B17: IL6R-PD095/IL6R-L (antibody, human IgG1)
heavy: B1 heavy with D235E, Y236L, D239Y, M254Y, A328K, K332A, N436Y, E441K
light: B1 light
notes: PD variant: P238D/G237Y introduced into IL6R-F11 (EU numbering); copies: 2 + 2
B18: IL6R-PD094/IL6R-L (antibody, human IgG1)
heavy: B1 heavy with D235E, Y236L, D239W, M254Y, A328K, K332A, N436Y, E441K
light: B1 light
notes: PD variant: P238D/G237W introduced into IL6R-F11 (EU numbering); copies: 2 + 2
B19: IL6R-PD097/IL6R-L (antibody, human IgG1)
heavy: B1 heavy with D235E, Y236L, D239G, S241D, M254Y, A328K, K332A, N436Y, E441K
light: B1 light
notes: PD variant: P238D/S239D introduced into IL6R-F11 (EU numbering); copies: 2 + 2
B20: IL6R-PD082/IL6R-L (antibody, human IgG1)
heavy: B1 heavy with D235E, Y236L, D239F, M254Y, A328K, K332A, N436Y, E441K
light: B1 light
notes: PD variant: P238D/G237F introduced into IL6R-F11 (EU numbering); copies: 2 + 2
B21: IL6R-PD086/IL6R-L (antibody, human IgG1)
heavy: B1 heavy with D235E, Y236L, D239L, M254Y, A328K, K332A, N436Y, E441K
light: B1 light
notes: PD variant: P238D/G237L introduced into IL6R-F11 (EU numbering); copies: 2 + 2
B22: IL6R-PD087/IL6R-L (antibody, human IgG1)
heavy: B1 heavy with D235E, Y236L, D239M, M254Y, A328K, K332A, N436Y, E441K
light: B1 light
notes: PD variant: P238D/G237M introduced into IL6R-F11 (EU numbering); copies: 2 + 2
B23: IL6R-PD081/IL6R-L (antibody, human IgG1)
heavy: B1 heavy with D235E, Y236L, D239E, M254Y, A328K, K332A, N436Y, E441K
light: B1 light
notes: PD variant: P238D/G237E introduced into IL6R-F11 (EU numbering); copies: 2 + 2

biological target: T1, FcγRIIa type H; assay: SPR (Biacore), captured antibody, FcγR as analyte, method of Example 14

Kd	Binder
9 µM	B1
3 µM	B2
1.4 µM	B3
6.2 µM	B4
2.6 µM	B5

biological target: T6, FcγRIIIa type V (human, UniProt P08637 17-208, limits assumed); assay: SPR (Biacore), antibody captured on chip, FcγR as analyte, method of Example 14
T6 construct: Soluble analyte in Biacore; also called FcγRIIIaV; FcγRIIIa(V)
T6 sequence (P08637 other isoform, or with tags, fused parts or gaps limits assumed): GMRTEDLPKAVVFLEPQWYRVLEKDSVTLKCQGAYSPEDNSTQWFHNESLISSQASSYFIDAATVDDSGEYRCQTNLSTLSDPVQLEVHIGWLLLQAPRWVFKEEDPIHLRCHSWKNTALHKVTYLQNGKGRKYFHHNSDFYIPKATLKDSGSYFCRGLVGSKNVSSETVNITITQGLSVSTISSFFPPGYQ
Method: Next, interaction between these antibodies and FcγR was analyzed kinetically using the Biacore T100 (GE Healthcare). The interaction was measured at a temperature of 25° C. using HBS-EP+ (GE Healthcare) for the running buffer. The Series S Sensor Chip CM5 (GE Healthcare) was used after immobilizing Protein A by amine coupling. […] Antibody captured on the chip was washed by allowing 10 mM glycine-HCl (pH 1.5) to react following measurement. The chip regenerated in this manner was used repeatedly. The dissociation constant KD (mol/L) was calculated from the association rate constant ka (L/mol/s) and dissociation rate constant kd (1/s) as calculated by global-fitting the measurement results with a 1:1 Langmuir binding model using the Biacore

Kd	Binder
69 µM	B6
75 µM	B7
72 µM	B8

biological target: T2, FcγRIIb; assay: ratio of SPR KD values of this variant (FcγRIIaH over FcγRIIb)
From the text: (§1) Furthermore, KD(IIaR)/KD(IIb) and KD(IIaH)/KD(IIb) in the table respectively represent the value obtained by dividing the KD value of each variant for FcγRIIaR by the KD value of each variant for FcγRIIb, and the value obtained by dividing the KD value of each variant for FcγRIIaH by the KD value of each variant for FcγRIIb.

KD (IIaH)/KD (IIb)	Binder
93.8	B1
83.1	B2
109	B9
272	B3
159	B4
182	B5
118	B10

biological target: T3, human FcγRIIb; assay: ratio of this variant's SPR KD for FcγRIIaR to its KD for FcγRIIb
From the text: as §1

KD (IIaR)/KD (IIb)	Binder
13.3	B11
0.4	B12
17.1	B13
17.5	B14
9.9	B15

Biological target: T4, human FcγRIIa type R
Assay: SPR (Biacore), antibody captured on chip, FcγR as analyte; binding amount divided by that of IL6R-F652/IL6R-L, times 100

relative binding activity for FcγRIIaR	Binder
222 % of the binding amount of IL6R-F652/IL6R-L	B16
543 % of the binding amount of IL6R-F652/IL6R-L	B17
593 % of the binding amount of IL6R-F652/IL6R-L	B18
844 % of the binding amount of IL6R-F652/IL6R-L	B19
380 % of the binding amount of IL6R-F652/IL6R-L	B20
268 % of the binding amount of IL6R-F652/IL6R-L	B21
196 % of the binding amount of IL6R-F652/IL6R-L	B22
117 % of the binding amount of IL6R-F652/IL6R-L	B23

biological target: T5, human FcγRIIb; assay: as above

relative binding activity for FcγRIIb	Binder
127 % of the binding amount of IL6R-F652/IL6R-L	B16
124 % of the binding amount of IL6R-F652/IL6R-L	B17
122 % of the binding amount of IL6R-F652/IL6R-L	B18
139 % of the binding amount of IL6R-F652/IL6R-L	B19
108 % of the binding amount of IL6R-F652/IL6R-L	B20
112 % of the binding amount of IL6R-F652/IL6R-L	B21
109 % of the binding amount of IL6R-F652/IL6R-L	B22
101 % of the binding amount of IL6R-F652/IL6R-L	B23

biological target: T2, FcγRIIb; assay: ratio of SPR KD values of this variant (FcγRIIaR over FcγRIIb)
From the text: as §1

KD (IIaR)/KD (IIb)	Binder
14.5	B1
19.1	B2
17.7	B9
18.1	B3
13.6	B4
20.3	B5
16.9	B10

biological target: T3, human FcγRIIb; assay: ratio of this variant's SPR KD for FcγRIIaH to its KD for FcγRIIb
From the text: as §1

KD (IIaH)/KD (IIb)	Binder
106	B11
0.3	B12
89.9	B13
55.5	B14
49.9	B15
